Assay results from patent US20210054072A1 (ALLAKOS, published 2021).

Experiments:
Siglec-7-ECD [1] = molecular target: T1, Siglec-7-ECD (human, UniProt Q9Y286 19-353); experiment: bio-layer interferometry (ForteBio), 25 C, antibody captured on the sensor, Siglec-7-ECD as analyte 50 to 1.56 nM, 1:1 global fit; the same value stands beside the sensorgrams ('QA79 KD=706pM', four traces up to about 0.16 nm, visible dissociation to 780 s)
T1 construct: also called p75; AIRM

Siglec-7-ECD-Fc = molecular target: T2, Siglec-7-ECD-Fc (human, UniProt Q9Y286 19-353); experiment: ligand blocking assay, flow cytometry: antibody (40 nM to 40 pM) mixed with 10 nM Siglec-7-ECD-Fc; blocked: binding of Siglec-7-ECD-Fc to its ligands on A375 melanoma cells
T2 construct: also called recombinant Siglec-7-Fc; Siglec-7-ECD-huFc; not shown: human Fc (huFc)
T2 sequence (Q9Y286 19-353): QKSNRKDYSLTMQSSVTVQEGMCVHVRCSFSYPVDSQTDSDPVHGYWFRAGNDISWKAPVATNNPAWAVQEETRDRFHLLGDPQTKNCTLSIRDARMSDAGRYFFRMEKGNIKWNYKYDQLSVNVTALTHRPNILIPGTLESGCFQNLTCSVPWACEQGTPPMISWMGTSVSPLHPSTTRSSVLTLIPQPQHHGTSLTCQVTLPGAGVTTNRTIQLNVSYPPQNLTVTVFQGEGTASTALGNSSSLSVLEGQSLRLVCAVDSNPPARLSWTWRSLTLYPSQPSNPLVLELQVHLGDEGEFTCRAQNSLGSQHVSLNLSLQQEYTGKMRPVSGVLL
Protocol: Recombinant Siglec-7-Fc was added to A375 cells in the presence of anti-Siglec-7 antibodies at increasing concentrations and binding of the complex was detected on the cell surface.
Human melanoma cell line A375, which expresses high level of ligands for Siglec-7, was used to determine the blocking activity of anti-Siglec-7 antibodies in a cell based assay. Two-fold serial dilutions of anti-Siglec-7 antibodies (40 nM to 40 pM) were combined with 10 nM Siglec-7-ECD-Fc in FACS buffer (PBS/2% BSA) and incubated on ice for 30 minutes. 2.5×10e4 A375 cells per well were added to round bottom 96-well tissue culture plates in FACS buffer, plates were centrifuged at 400 g for 2 min, supernatant was removed and cells were re-suspended in 100 ul of the antibody-Siglec-7 complexes. After a 1 hour incubation on ice, cells were washed twice and incubated for 30 minutes with goat anti-human F(ab′)2 fragment conjugated to AF647 (Jackson IR labs) at 1 ug/ml in FACS buffer. After two more washes, cells were fixed in PBS/2% PFA and acquired on a Novocyte flow cytometer (ACEA biosciences). IC₅₀ values for blocking were determined based on plotting mean fluorescence in the APC channel and analysis using Prism Graphpad software.

Siglec-7-ECD [2] = molecular target: T1, Siglec-7-ECD; experiment: bio-layer interferometry (ForteBio), 25 C, antibody captured on the sensor, Siglec-7-ECD as analyte 50 to 1.56 nM, 1:1 global fit
Protocol: Antibody binding analysis was carried out by bio-layer interferometry (ForteBio). […] Antibodies were captured on anti-mouse kinetic sensors at 0.5 ug/mL; Siglec-7-ECD was used as analyte and diluted in assay buffer from 50 nM to 1.56 nM with 2× dilutions. Two-minute associations were conducted, followed by 10-minute dissociations. Results were determined relative to a control empty reference AHC sensor, and analyzed using ForteBio analysis software with 1:1 global fit parameters.

[3] = molecular target: Siglec-7 on primary human NK cells (human, UniProt Q9Y286 19-467); experiment: cell-based or functional assay
Siglec-7 on primary human NK cells, sequence (Q9Y286 19-467 limits assumed): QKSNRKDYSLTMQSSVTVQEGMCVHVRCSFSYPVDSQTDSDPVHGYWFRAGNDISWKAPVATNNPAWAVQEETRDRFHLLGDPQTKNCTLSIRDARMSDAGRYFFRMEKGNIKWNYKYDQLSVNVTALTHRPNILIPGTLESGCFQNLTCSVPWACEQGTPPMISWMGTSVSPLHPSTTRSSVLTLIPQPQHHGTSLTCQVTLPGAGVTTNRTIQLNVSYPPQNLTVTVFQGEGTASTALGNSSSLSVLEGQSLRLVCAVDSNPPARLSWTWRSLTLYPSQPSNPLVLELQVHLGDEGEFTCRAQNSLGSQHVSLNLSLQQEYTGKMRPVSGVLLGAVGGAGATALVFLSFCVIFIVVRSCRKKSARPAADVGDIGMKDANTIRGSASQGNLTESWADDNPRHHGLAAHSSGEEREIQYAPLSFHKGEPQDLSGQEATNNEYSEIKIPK

T1 sequence (Q9Y286 19-353 limits assumed): as the sequence (Q9Y286 19-353) above

In the case of anti-Siglec-7 antibody QA79, the Kd (Siglec-7-ECD [1]) is reported as 0.706 nM and the IC50 (Siglec-7-ECD-Fc) is reported as 7.49 nM.

anti-Siglec-7 antibody S7.7 was tested, and the Kd (Siglec-7-ECD [2]) was 0.422 nM and the IC50 (Siglec-7-ECD-Fc) was 4.26 nM.

With anti-Siglec-7 antibody Z176 the Kd (Siglec-7-ECD [2]) was 0.086 nM.

B1: 5215-9 (antibody, V domains shown)
VH: EVQLQQSGAELVKSGASVKLSCTASGFNIKDTYMHWVKQRPEKGLEWIGWIDPADGHTKYDPKFQGKATITADTSSNTAYLHLSSLTSEDAAVYYCPRGGSSPYFDYWGQGTTLTVSS
VL: DIVLTQSPASLTISLGQRATISCRASQSVSTSTYSYIHWYQQKPGQPPKLLIKYASNLASGVPARFSGSGSGTDFSLSIHPMEEEDTATYYCQHSWKIPFTFGSGTKLEIK
notes: anti-Siglec-7 monoclonal antibody of the panel
With B1 the Kd (Siglec-7-ECD [2]) was 0.001 nM and the IC50 (Siglec-7-ECD-Fc) was 5.33 nM.

B2: monoclonal antibody 8A2 (antibody, V domains shown)
VH: QVQLKESGPGLVAPSQSLSITCTVSGFSLTTYGVDWVRQFPGKGLEWLGVIWGGGNTNYNSALMSRLSISKDTSKSQVFLKMNSLQTDDTAMYYCAKHKGTSHAMEYWGQGTSVTVSS
VL: QIVLTQSPAIMSASPGEKVTMTCSASSRVIFMYWYQQKPGSSPRLLIYDTSNLASGVPVRFSGGGSGTSYSLTISRMEAEDAATYYCQQWSSYPPTFGAGTKLELK
For B2, the “IC50 (read off the curve), internalization of Siglec-7” value (shortened to “IC50 (read off the curve)”) [3] was about 0.01 nM.

B3: 5215-13 (antibody, V domains shown)
VH: EVQLQQSGAELVKPGASVKLSCTVSGFNFKDTYIHWVKQRPEQGLEWIGRIDPANGNTKYASKFQDKATITADTSSNTVYMQLSSLTSEDTAVYYCTRGWDGYYFDCWGQGTTLTVSS
VL: DIVLTQSPASLVVSLGLRATISCRASQSVSTSSHSYLHWYQQKPGQPPKLLIKYASNLASGVPARFSGSGSGADFTLNIHPVEEEDTATYYCQHSWEIPYTFGGGTKLEIK
notes: as for B1
With B3 the Kd (Siglec-7-ECD [2]) was 0.99 nM and the IC50 (Siglec-7-ECD-Fc) was 1.32 nM.

B4: monoclonal antibody 16H11 (antibody, V domains shown)
VH: QVQLHQSGAELVKPGASVKISCKGSGYDFSNFWMNWVKQRPGKGLEWIGQIYPGDGEIKYNGKFKGKATLTADESSSTAYIHLSSLTSEDSAVYFCARDDYLRAMDYWGQGTSVTVSS
VL: DIQMTQSPASLSASVGETVTITCRASGNIHNYLAWFQQKQGKSPHFLVYSAKALADGVPSRFSGSGSGTQYSLKINSLQPEDFGTYYCQHFWSSPYTFGGGTKLEIK
In the case of B4, the “IC50 (read off the curve)” value [3] is reported as about 0.01 nM.

B5: monoclonal antibody 3F1 (antibody, V domains shown)
VH: EFQLQQSGPEMVKPGASVKMSCKASGDSFTDYKINWVKQNNGKSLEWIGVINPDSGTTSYNQIFEGKATLTVDQSSSTAYMQVNRLTSEDSAVYYCTTWDDYSFYAMDYWGQGTSVTVSS
VL: DVLMTQTPLSLPVSLGDQASISCRSSQNIVHSNGNTYLEWFLQKPGQSPKLLIYKVSNRFSGVPDRFSGSGSGTDFTLKISRVEAEDLGVYYCFQGSHIPWTFGGGTKLEIK
With B5 the “IC50 (read off the curve)” value [3] was about 0.01 nM.

B6: 5215-2 (antibody, V domains shown)
VH: DVQLQESGPGLVKPSQSLSLTCTVTGYSITSDYVWTWIRQFPGNKLEWMGYITYSDSTNYNPSLKSRLSITRDTSKNQFFLQLSSVTTEDTATYFCARSLTGNYFDYWGQGTTLTVSS
VL: VIVLTQSPASLEVSLGQRATISCRASQTVRISSYSYMNWYQQKPGQPPKLLIKYASNLESGVPARFSGSGSGTDFTLNIHPVEEEDTATYYCQHSWKIPTFGGGTKLEIK
notes: as for B1
For B6, the Kd (Siglec-7-ECD [2]) was 0.149 nM and the IC50 (Siglec-7-ECD-Fc) was 4.12 nM.
